Test: yeast display, Sf9 membrane polyspecificity reagent, FACS + sequencing; frameworks hold sequencing errors
Procedure, shortened: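 Nanobodies came from a synthetic yeast display library in Saccharomyces cerevisiae BJ5465, induced with galactose for 36–48 hours and stained for 1 hour at 4 °C with 10% biotinylated, detergent-solubilized Sf9 membrane reagent. Cells were enriched on streptavidin microbeads and then FACS-sorted, with low and high (top ~1%) gates set on anti-HA fluorescence for expression and streptavidin fluorescence for reagent binding. Each polyreactivity label reflects the gate a clone came from. Genes were amplified by colony PCR, sequenced by MiSeq 2 × 250 and filtered by CDR length.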

| Sequence | polyreactivity (PSR sort gate) |
| --- | --- |
| QVQLVESGGGLVQAGGSLRLSCAASGFTFYYYAMGWYRQAPGKERELVAAISGGGGSTYYADSVKGRFTISRDNAKNTVYLQMNSLKPEDTAVYYCAAVGSWRYNYDYDYWGQGTQVTVSS | high polyreactivity |
| QVQLVESGGGLVQAGGSLRLSCAASGFTFYYYAMGWYRQAPGKERELVAAISYSGGSTYYADSVKGRFTISRDNAKNTVYLQMNSLKPEDTAVYYCAALYTGESGYWGQGTQVTVSS | high polyreactivity |
| QVQLVESGGGLVQAGGSLRLSCAASGFTFYYYAMGWYRQAPGKERELVAAITKNGGRTFYADSVKGRFTISRDNAKNTVYLQMNSLKPEDTAVYYCATVGNWPDYYYWGQGTQVTVSS | high polyreactivity |
| QVQLVESGGGLVQAGGSLRLSCAASGFTFYYYAMGWYRQAPGKERELVASISSSGGSTYYADSVKGRFTISRDNAKNTVYLQMNSLKPEDTAGYYCARYRRRYDTYPGDYWGQGTQVTVSS | high polyreactivity |
| QVQLVESGGGLVQAGGSLRLSCAASGFTFYYYAMGWYRQATGKVRELVAAISARGGSTYYADSVKGRFTISRDNAKNTVYLQMNSLKPEDTAVYYCNAVTGHTSYEYDYWGQGTQVTVSS | high polyreactivity |
| QVQLVESGGGLVQAGGSLRLSCAASGFTGGRYAMGWYRQEPGKERELVDDISWSGGGTYYADSVKGRFTISRDNAKNTVYLQMNSLKPEDTAVYYCAAYWYRSYKRYGYWGQGTQVTVSS | high polyreactivity |
| QVQLVESGGGLVQAGGSLRLSCAASGFTGVNAMGWYRQAPGKERELVARISNSGGSTYYADSVKGRFTISRDNAKNTVYLQMNSLKPEDTAVYYCNADSYYWGQGTQVTVSS | high polyreactivity |
| QVQLVESGGGLVQAGGSLRLSCAASGFTIAKYAMGWYRQAPGKERELVAAISSSGGRTYYADSVKGRFTISRDNAKNTVYLQMNSLKPEDTAVYYCAADFSGPFDYWGQGTQVTVSS | high polyreactivity |
| QVQLVESGGGLVQAGGSLRLSCAASGFTIAVYVMGWYRQAPGNERELVATISFSVGSTYYADSVKGRFTISRDNAKNTVYLLMNCLKPEVTAVYYCNADPPPEYYPDKDNSWGQGTQVTVSS | low polyreactivity |
| QVQLVESGGGLVQAGGSLRLSCAASGFTICTYAMGWYRQAPGKERELVAAIDSGGSTYYADSVMGRFTISRDNAKTTVYLQMNSLKPEDTAVYYCNAGPSVTSGYDYDYWGQGTQVTVSS | low polyreactivity |
| QVQLVESGGGLVQAGGSLRLSCAASGFTIDKNVMGWYRQAPGKERELVAAISVRGGTTYYADSVKGRFTISRDNAKNTVYLQMNSLKPEDTAVYYCAARAYGPPARYDSWGQGTQVTVSS | low polyreactivity |
| QVQLVESGGGLVQAGGSLRLSCAASGFTIGDNAMGWSRQAPGKERELVAAITWSGGSTYYADSVKGRFTISRDNAKNTVYLQMNSLKPEDTAVYYCAADKLRELDYWGQGTEVTVSS | low polyreactivity |
| QVQLVESGGGLVQAGGSLRLSCAASGFTIGRYAMGWYRQAPGKERELVAAISKNGGRTYYADSVKGRFTISRDNAKNTVYLQMNSLKPEDTAVYYCNTDWYYTGRVHGFDYWGQGTQVTVSS | high polyreactivity |
| QVQLVESGGGLVQAGGSLRLSCAASGFTIGSYAMGWYRQAPGKEREFVAAIRRSGSSTYYADSVKGRFTISRDNAKNTVYLQMNSLKPEDTAVYYCAADVYRRLRRYRYYYWGQGTQVTVSS | low polyreactivity |
| QVQLVESGGGLVQAGGSLRLSCAASGFTIISYTMGWYRQAPGKDRELVAAIRGGGRTYYADSVKGRFTISRDNAKNTVYLQMNSLKPEDTAVYYCAARLRYGGHYDYWGQGTQVTVSS | high polyreactivity |
| QVQLVESGGGLVQAGGSLRLSCAASGFTINFYSLGWYRQAPGKERELVAAITASGGGSTYYADSVKGRFTISRDNAKNTVYLQMNSLKQEDTAVYYCNADFTGSFYTYEYWGQGTQVTVAS | low polyreactivity |
| QVQLVESGGGLVQAGGSLRLSCAASGFTIQRYAMGWYRQAPGKERELVAAITSGGSTYYADSVKGSFTISRDNAKNTVYFQMNSLKPEDTSVYYCATRAVWSSWGRRYDSWGQGTQVTVSS | high polyreactivity |
| QVQLVESGGGLVQAGGSLRLSCAASGFTIRRNAMGWYRQAPGKERELVAAISRSGGSTYADSVKGRFTISRDNAKNTVYLQMNSLKPEDTAVYYFASDHSDYRYTYTALIAEFYYWGQGTQVTVSS | low polyreactivity |
| QVQLVESGGGLVQAGGSLRLSCAASGFTIRSYVMGWYRQAPGKERELVAAIRRSGGSTYYADSVKGRFTISRDNAKNTVYLHMNSMKPEDTAVYYCAAKAYTYYARIGFDYWGQGSQVTVSS | high polyreactivity |
| QVQLVESGGGLVQAGGSLRLSCAASGFTIRSYVMGWYRQAPGKERELVAAIRRSGGSTYYADSVKGRFTISRDNAKNTVYLQMNSLKPEDTAVYYCAVGARWYWSYYWGQGTQVTVSS | high polyreactivity |
| QVQLVESGGGLVQAGGSLRLSCAASGFTIRWYTMGWYRQAPGKERELVAAISRGGSTNYADSVKGRFTISRDNAKNTVYLQMNSLKPEDTAVYYCNAVRGGRYGLDYWGQGTQVTVSS | high polyreactivity |
| QVQLVESGGGLVQAGGSLRLSCAASGFTIRWYTMGWYRQAPGKERELVAAITSGGGTYYADSVKGRFTISRDNAKNTVYLQMNILKPEDTAVYYCAARTLSVARRRPYYYWGQGTQVTGSS | high polyreactivity |

| Sequence | polyreactivity (PSR sort gate) |
| --- | --- |
| QVQLVESGGGLVQAGGSLRLSCAASGFTIRYYAMGWYRQAPGKERELVAAIDWSGGSTYYADSVKGRFTISRDNAKNTVYLQINSLKPEDTAVYYCNVDFYDLYVYLWYVDYDYWGQGTQVTVSS | high polyreactivity |
| QVQLVESGGGLVQAGGSLRLSCAASGFTISLYTMAWYRQAPGKERELVASNTRRGGSTYYADSVKGRFTISRDYAKNTVYLQMNSLKTEDTAGYYCARAARSDSIFKPRRGYATDGYWGQVTQVTVSS | high polyreactivity |
| QVQLVESGGGLVQAGGSLRLSCAASGFTISPYAMGWYRQAPGKERELVAGITRNGGSTYYADSVKGRFTISRDNAKNTVYLQMNSLKPEDTAVYYCITKYAVEFDYWGQGTQVTVSS | low polyreactivity |
| QVQLVESGGGLVQAGGSLRLSCAASGFTISRNAMGWYRQAPGKERELVAAISQSGGSTYYADSVKGRFTISRDNAKNTVYLQMNSLKPEDTAVYYCAAQSFAQYGWRYGYWGQGTQVTVSS | high polyreactivity |
| QVQLVESGGGLVQAGGSLRLSCAASGFTISRYAIGWYRQAPGKERELVAAITGSGGSTYYADSVKGRFTISRDNAKNTVYLQMNSLKPEDTAVYYCNTLKHYKREYDYWGQGTQVTVSS | high polyreactivity |
| QVQLVESGGGLVQAGGSLRLSCAASGFTISVYVMGWYRQAPGKERELVAAISSSGGSTYYADSVKGRFTISRDNAKNTVYLQMNSLKPEDTAVYYCNAAGYWSYAYYWGQGTQVTVSS | high polyreactivity |
| QVQLVESGGGLVQAGGSLRLSCAASGFTIWRYAMGWYRQAPGKERELVAAISRGGSTNYADSVKGRFTISRDNAKKTVYLQMNSLKPEDTAGYYCAASVQYRRLKKFYYWGQGTQVTVSS | high polyreactivity |
| QVQLVESGGGLVQAGGSLRLSCAASGFTIWRYAMGWYRQEPGKERELVAAISRGGSTNYADSVKGRFTISRDNAKNTVYLQMNSLKPEDTAVYYCAASVLYRRLKKFYYWGQGTQVTVSS | high polyreactivity |
| QVQLVESGGGLVQAGGSLRLSCAASGFTIYLYTMGWYRQAPGKERELVAAITSSGTRTYYADSVKGRFTISRDNAKNTVYLQMNSLKPEDTAVYYCNAARYGRHLSTYDYWGQGTQVTVSS | high polyreactivity |
| QVQLVESGGGLVQAGGSLRLSCAASGFTIYNYAMGWYRQAPGKERELVAAISWSGGSTHYADSVKGRFTISRDNAKNTVYLQMNSLKPEDTAVYYCAKVGVLVYYTYYYWGQGTQVTVSS | low polyreactivity |
| QVQLVESGGGLVQAGGSLRLSCAASGFTIYRYAMGWYRQAPGKERELVATIRRGGSTKYADSVKGRYTISRDNAKNTVYILMISLKPEDTAVYYCNARYYAAPDKYYYWGQGTQVTVSS | low polyreactivity |
| QVQLVESGGGLVQAGGSLRLSCAASGFTIYSYAKAWYRQAPGKERELVAAITRGSSTNYADSVKGRFTISRDNAKNTVYLQMNSLKPEDTAVYYCNRGGWRQYDSWGQGTQVTVSS | high polyreactivity |
| QVQLVESGGGLVQAGGSLRLSCAASGFTLANYAMGWYRQAPGKERELVAAIDYSGGGTYYADSVKGRFTISRDNAKNTVYFQMNSLKPEDTAVYYCAARRWSYYSAKYDYWGQGTQVTVSS | low polyreactivity |
| QVQLVESGGGLVQAGGSLRLSCAASGFTLANYAMGWYRQAPGKERELVAAISSSTGGTYYADSVKGRFTISRDNAKNTVYLQMNSLKPEDTAVYYCAAEYYFHKYVRMYYWGQGTQVTVSS | high polyreactivity |
| QVQLVESGGGLVQAGGSLRLSCAASGFTLARNAMVWYRQAPGKERELVAANSWSGGTTYYADSVKGSFTISRDNAKNTVYLQMNSLKPEDTAVYYCNTASWRAQYYYWGQGNQVTVSS | high polyreactivity |
| QVQLVESGGGLVQAGGSLRLSCAASGFTLAYNAMGWYRQAPGKESELVAAISKSSGSTYYADSVKGRFTISRDNSKNTFYLQMNSLKPEDTAVYYCAAEFYFNGVWYDYWGQGTQVTVSS | high polyreactivity |
| QVQLVESGGGLVQAGGSLRLSCAASGFTLDPYAMGWYRQAPGKERELVAAIRLSGSSTYYADSVKGRFTISRDNAKNTVYLQMNSLKPEDTAVYYCAADGISHWLYRYDYWGQGTQVTVSS | low polyreactivity |
| QVQLVESGGGLVQAGGSLRLSCAASGFTLDQYAMGWYRQAPGKERELVAVITSGGNTYYADSVKGRFTISRDNAKNTVYLQMNSLKPEDTAVYYCAKDVSDPFYDPFEYWGQGTQVTVSS | low polyreactivity |
| QVQLVESGGGLVQAGGSLRLSCAASGFTLDSNALGWYRQAPGKERELVAAISWDDGSTYYADSVKGRFTISRDNAKNTVYLQMNSLKPEDTAVYYCAADASDVYGDRPWFHYYWGYDYWGQGTQVTVSS | low polyreactivity |
| QVQLVESGGGLVQAGGSLRLSCAASGFTLFGYAMGWYRQAPGKERELVAAISKDGGSTYYADSVKGRFTISRDNAKNTVYLQMNSLKPEDTAVYSCAARVKRPQTGYDRRYGYWGQGTQVTVSS | high polyreactivity |
| QVQLVESGGGLVQAGGSLRLSCAASGFTLFGYAMGWYRQAPGKERELVAAISKDGGSTYYADTVKGRFTISRDNAKNTVYLQMNSLKPEDTAVYYCAARVKRPQSGYDRRYGYWGQGTQVTVSS | high polyreactivity |

From the nanobody polyreactivity screen of Harvey et al. (2022)
